Changes are numbered by the printed parent chain. Where two headings read alike, the source gives them in different places.
What was measured:
[1] = target: T1, N-terminal PA-tagged mouse USAG-1 (WISE) recombinant protein (mouse, UniProt Q9CQN4 24-206); assay: BLI (Octet), antibody immobilized on the biosensor, mouse USAG-1 at 10, 30, 100 nM, global fitting
T1 construct: The pull-downs used culture supernatant of Expi293F cells; also called PA-mUSAG-1 (WISE); purified full-length recombinant mouse USAG-1; not shown: PA tag at the N-terminal
T1 sequence (looked up): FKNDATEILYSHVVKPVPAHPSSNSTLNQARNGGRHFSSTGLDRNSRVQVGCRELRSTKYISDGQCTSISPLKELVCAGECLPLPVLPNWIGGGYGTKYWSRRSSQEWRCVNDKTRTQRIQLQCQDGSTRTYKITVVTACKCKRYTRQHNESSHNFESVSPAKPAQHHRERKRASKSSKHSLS
Experimental: For 8 out of the 9 antibodies grouped in Example 8, affinities (KD values) were determined by using the same Octet-based BLI method as in Example 8. […] The affinities were calculated by subjecting the obtained curves to global fitting with an analysis program attached to the Octet device.

[2] = target: T1, N-terminal PA-tagged mouse USAG-1 …; assay: cell-based or functional assay
human USAG-1 protein [3] = target: T2, human USAG-1 protein (human, UniProt Q6X4U4 24-206); assay: solid-phase ELISA of the hybridoma clone on the immunizing antigen (E. coli-derived human USAG-1, R & D systems), paragraph 134
T2 construct: mature
T2 sequence (looked up): T1 sequence (looked up) with S39N, S46T, V159M, A165V, L182M

[4] = target: T3, human FLAG-tagged USAG-1 transiently forcibly expressed in HEK293 cells (human, UniProt Q6X4U4 24-206); assay: immunostaining of HEK293 cells transiently expressing human FLAG-tagged USAG-1
T3 construct: whole, on cells; Immunostaining of transfected cells; not shown: FLAG tag
T3 sequence (looked up): T1 sequence (looked up) with S39N, S46T, V159M, A165V, L182M

human USAG-1 protein [5] = target: T2, human USAG-1 protein; assay: solid-phase ELISA of the hybridoma clone on the immunizing antigen (E. coli-derived human USAG-1, R & D systems), paragraph 134; remark: listed apart in the source
[6] = target: T4, 15 amino acid peptide for epitope mapping WRCVNDKTRTQRIQL (SEQ ID NO: 34) (human); assay: peptide array on cellulose membrane, HRP-conjugated anti-mouse antibody, ECL
T4 peptide: WRCVNDKTRTQRIQL
Experimental: (§1) Briefly, 169 overlapping peptides of 15 amino acids were synthesized based on a human USAG-1 protein sequence (183 amino acid length) excluding a signal peptide by shifting the 15 amino acid sequence from the beginning by one amino acid to prepare a peptide library. The 169 kinds of peptides were bound onto a cellulose membrane to prepare a peptide array. […] After washing, an HRP-conjugated anti-mouse antibody (1/25000 dilution) was added as a secondary antibody, and ECL solution was used for color development.

[7] = target: T5, 15 amino acid peptide for epitope mapping CVNDKTRTQRIQLQC (SEQ ID NO: 36) (human); assay: as above
T5 peptide: CVNDKTRTQRIQLQC
Experimental: as §1

[8] = target: T6, 15 amino acid peptide for epitope mapping QEWRCVNDKTRTQRI (SEQ ID NO: 32) (human); assay: as above
T6 peptide: QEWRCVNDKTRTQRI
Experimental: as §1

[9] = target: T7, 15 amino acid peptide for epitope mapping RCVNDKTRTQRIQLQ (SEQ ID NO: 35) (human); assay: as above
T7 peptide: RCVNDKTRTQRIQLQ
Experimental: as §1

[10] = target: T8, 15 amino acid peptide for epitope mapping VNDKTRTQRIQLQCQ (SEQ ID NO: 37) (human); assay: as above
T8 peptide: VNDKTRTQRIQLQCQ
Experimental: as §1

[11] = target: T9, 15 amino acid peptide for epitope mapping EWRCVNDKTRTQRIQ (SEQ ID NO: 33) (human); assay: as above
T9 peptide: EWRCVNDKTRTQRIQ
Experimental: as §1

B1: mouse anti-USAG-1 neutralizing antibody E (B103) (antibody, mouse IgG1, kappa, V domains shown)
VH: DVQLQESGPGLVKPSQSLSLTCSVTGYSITSGYYWNWIRQFPGNKLEWMGCISYDGSNNYNPSLKNRISITRDTSKNQFFLKLNSVTTEDTATYYCARGGLLWGQGTTLTVSS
VL: DIQMTQSPSSLSASLGERVSLTCRASQEISGYLSWLQQKPDGNIKRLIYAASTLDSGVPKRFSGSRSGSDYSLTISRLESEDFADYYCLQYASYPWTFGGGTKLEIKR
notes: Raised against baculovirus-derived rat USAG-1
[1]
  Kd: 4.97 nM

B2: mouse anti-USAG-1 neutralizing antibody C (B14) (antibody, V domains shown)
VH: EVQLQQSGPELVKPGASVKISCKASGYSFTGYYMNWVKQSPEKSLEWIGEINPTTGGTTYNQKFKAKATLTVDKSSSTAYMQLKSLTSEDSAVYYCARLHYDYDGVGYAMDYWGQGTSVTVSS
VL: DIVMTQSHKFMSTSVGDRVSITCKASQDVSTAVAWYQQKPGQSPKLLIYSASYRYTGVPARFTGSGSGTDFTFTISSVQAEDLAVYYCQQHYSTPPTFGGGTKLEIKR
notes: as for B1
[1]
  Kd: 4.21 nM
[2]
  EC50 against the BMP signaling inhibition by USAG-1 (BMP ALP assay, C2C12 cells, BMP7): 0.298 µg/mL
  EC50 against the Wnt signaling inhibition by USAG-1 (WNT reporter assay, luciferase): 4.73 µg/mL

B3: mouse anti-USAG-1 neutralizing antibody B (E57) (antibody, mouse IgG1, kappa, V domains shown)
VH: EVQLQQSGPELVKPGASVKISCKTSGYSFTGYYMSWVKQSPEKSLEWIGEINPTTGGSTYNQKFKAKATLTVDKSSSTAYMQLKSLTSEDSAVYYCAREGYYSGISYDAMDYWGQGTSVTVSS
VL: DIQMTQTTSSLSASLGDRVTISCRASQDISNYLSWYQQKPDGTVKLLIYYTSRLHSGVPSRFSGSGSGTDYSLTISNLEQEDIATYFCQQGNTLPRTFGGGTKLEIKR
Human USAG-1 protein [3]
  binding result: binds
[1]
  Kd: 2.44 nM
[4]
  binding result: binds

B4: mouse anti-USAG-1 neutralizing antibody A (E37) (antibody, mouse IgG1, kappa, V domains shown)
VH: QVQLQQSDAELVNPGASVKISCKVSGYTFTDHTIHWMKQRPEQGLEWIGYIYPGDGSTKYNEKFKGKATLTADKSSSTAYMQLNSLTSEDSAVYFCARTETYYGRIYYYAMDYWGQGTSVTVSS
VL: QIVLSQSPAILSASPGEKVTMTCRASSSVSYMYWYQQKPGSSPKPWIYATSNLASGVPIRFSGSGSGTSYSLTISRVEAEDAATYYCQQWSSNLTFGAGTKLELKR
[1]
  Kd: 2.43 nM
Human USAG-1 protein [5]
  binding result: binds
[6]
  binding result: binds
[7]
  binding result: binds
[8]
  binding result: binds
[9]
  binding result: binds
[10]
  binding result: binds
[11]
  binding result: binds
[4]
  binding result: binds

From patent publication US20220259298A1 (KYOTO UNIVERSITY, published 2022)
